Residue numbers refer to the chain shown, from its start.
B1: G1AA/E12v2 (antibody, human IgG1, kappa, L234A L235A, V domains shown)
VH: EVQLVQSGAEVKRPGASVKVSCKASGYPFTSYGISWVRQAPGQGLEWMGWISAYSGGTNYAQKLQGRVTMTTDTSTSTAYMELRSLRSDDTAVYYCARDLFPTIFGVSYYYYWGQGTLVTVSS
VL: DIQMTQSPSTLSASVRDRVIITCRASQSIGNRLAWYQHKPGKAPKLLIYEASTSETGVPSRFSGSGSGTDFTLTISSLQPEDFATYYCQQSYSTPYTFGQGTKLEIKR
notes: IgG1 with LALA, kappa light chain; SGGT at 54-57 and proline at Kabat 28 of VH
B2: G1AA/lambdav3 (antibody, human IgG1, L234A L235A, V domains shown)
VH: B1 VH with P28T
VL: QSALTQPASVSGSPGQSITISCTGTSSDVGGYNYVSWYQQFPGKAPKLMIFEVTNRPSGVSDRFSGSKSDNTASLTISGLQAEDEAEYYCSSFKRGSTLVVFG
notes: IgG1 with LALA, lambda light chain; also called G1AA/lamdav3
B3: G1AA/G12v2 (antibody, human IgG1, kappa, L234A L235A)
heavy: not shown
light: DIQMTQSPSTLSASVGDRVTITCRASQSISGRLAWYQQKPGKAPNLLIYEASNLESGVPSRFSGSGSGTEFTLTISSLQPEDFATYYCQQSYSWPRTFGQGTKVEIKRTVAAPSVFIFPPSDEQLKSGTASVVCLLNNFYPREAKVQWKVDNALQSGNSQESVTEQDSKDSTYSLSSTLTLSKADYEKHKVYACEVTHQGLSSPVTKSFNRGEC
notes: IgG1 with LALA, kappa light chain
B4: G1AA/E05v2 (antibody, human IgG1, kappa, L234A L235A)
heavy: not shown
light: DIQMTQSPSTLSASVGDRVTITCRASQSISGRLAWYQQKPGKAPNLLIYEASNLESGVPSRFSGSGSGTEFTLTISSLQPEDFATYYCQQSYSTPRVTFGQGTKVEIKRTVAAPSVFIFPPSDEQLKSGTASVVCLLNNFYPREAKVQWKVDNALQSGNSQESVTEQDSKDSTYSLSSTLTLSKADYEKHKVYACEVTHQGLSSPVTKSFNRGEC
notes: as for B3
B5: G1/887_04_E12 (antibody, human IgG1, V domains shown)
VH: B1 VH with S55N, G56S, G57N
VL: B1 VL
notes: IgG1 without LALA, kappa light chain; proline at Kabat position 28 of VH
B6: G1/894_08_E05 (antibody, human IgG1, V domains shown)
VH: B1 VH with P28T, S55N, G56S, G57N
VL: DIQMTQSPSTLSASVGDRVTITCRASQSISGRLAWYQQKPGKAPNLLIYEASNLESGVPSRFSGSGSGTEFTLTISSLQPEDFATYYCQQSYSTPRVTFGQGTKVEIKR
notes: IgG1 without LALA, kappa light chain; also called G1/894_8_E05
B7: G1/929_01_A02 (antibody, human IgG1, V domains shown)
VH: B1 VH with P28T
VL: B1 VL
notes: IgG1; The heavy chain as printed has T28
B8: G1/887_04_G12 (antibody, human IgG1, V domains shown)
VH: B1 VH with P28T, S55N, G56S, G57N
VL: DIQMTQSPSTLSASVGDRVTITCRASQSISGRLAWYQQKPGKAPNLLIYEASNLESGVPSRFSGSGSGTEFTLTISSLQPEDFATYYCQQSYSWPRTFGQGTKVEIKR
notes: IgG1 without LALA, kappa light chain
B9: G1AA/280_02_G02_NS (antibody, human IgG1, L234A L235A)
heavy: not shown
light: QSALTQPASVSGSPGQSITISCTGTSSDVGGYNSVSWYQQFPGKAPKLMIFEVTNRPSGVSDRFSGSKSDNTASLTISGLQAEDEAEYYCSSFKRGSTLVVFGGGTKLTVLGQPAAAPSVTLFPPSSEELQANKATLVCLISDFYPGAVTVAWKADSSPVKAGVETTTPSKQSNNKYAASSYLSLTPEQWKSHRSYSCQVTHEGSTVEKTVAPTECS
notes: also called G1AA/280_2_G02_NS
B10: G1/280_02_G02 (antibody, human IgG1, V domains shown)
VH: B1 VH with P28T, S55N, G57N
VL: B2 VL with Y34S

Molecular target: T1, cynomolgus PD-L1-His (Acro Biosystems, PD1-C52H4) (cynomolgus, UniProt G7PSE7 19-239)
T1 construct: Bought; also called Cyno PD-L1-His
T1 sequence (G7PSE7 entry or part of it): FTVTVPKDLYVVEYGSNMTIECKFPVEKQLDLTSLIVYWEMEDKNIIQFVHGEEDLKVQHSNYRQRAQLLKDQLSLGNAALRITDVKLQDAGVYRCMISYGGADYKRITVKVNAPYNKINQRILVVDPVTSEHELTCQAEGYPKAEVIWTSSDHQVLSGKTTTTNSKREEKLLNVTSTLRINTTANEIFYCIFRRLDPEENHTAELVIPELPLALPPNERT
Test: SPR as in Example 3.2, mAb on Protein A chip
Experimental: (§1) Briefly, the anti-PD-L1 mAbs, diluted in HBS-EP buffer (GE Healthcare, BR100188) at 2 μg/ml, were injected individually on flows cell 2, 3 and 4 of a Protein A chip (GE Healthcare, 29127556) at 30 μl/min to achieve a final response of approximately 110 RU. The recombinant human, cynomolgus and mouse PD-L1-His antigens, diluted in HBS-EP buffer, were injected on flow cell 1, 2, 3 or 4 as appropriate at a concentration range of 81 nM to 0.037 nM with 3-fold dilutions for 4 min at 75 μl/min and then allowed to dissociate in buffer for 10 min. Regeneration was achieved by injecting 10 mM glycine-HCL pH1.5 (GE Healthcare, Human Antibody Capture Kit, BR00356) for 30 sec at a rate of 30 μl/min. Subtracted data (flow cell 2-flow cell 1, flow cell 3-flow cell 1, or flow cell 4-flow cell 1) were analysed using BIAevaluation 3.2 Software (GE Healthcare) to identify binding using the model 1:1 binding with mass transfer, with refractive index (RI) constant 0. To determine the affinities of the mouse PD-L1 binding curves, the Rmax of the corresponding human binding profiles was used.

Row | Kd [nM] | Binder
1 | 0.37 | B1
2 | 2.45 | B2
3 | 0.75 | B3
4 | 0.89 | B4

Molecular target: T2, biotinylated human PD-L1-Avi-His (Acro Biosystems, PD1-H82E5) (human, UniProt Q9NZQ7 19-238, biotinylated)
T2 construct: Bought
T2 sequence (Q9NZQ7 19-238 limits assumed): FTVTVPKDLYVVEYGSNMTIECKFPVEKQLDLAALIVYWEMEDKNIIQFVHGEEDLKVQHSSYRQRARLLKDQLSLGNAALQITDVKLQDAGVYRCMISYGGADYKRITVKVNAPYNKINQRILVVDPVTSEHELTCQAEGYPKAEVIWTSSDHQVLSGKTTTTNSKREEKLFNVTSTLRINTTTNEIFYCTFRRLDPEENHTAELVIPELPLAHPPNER
Test: SPR as in Example 3.2, mAb on Protein A chip
Experimental: as §1

Row | Kd [nM] | Binder
5 | 0.21 | B1
6 | 1.34 | B2
7 | 0.44 | B3
8 | 0.5 | B4

Molecular target: T2, biotinylated human PD-L1-Avi-His (Acro …)
Test: SPR; end of the range tied to this clone by the KD values of Table 4
Experimental: as §1

Row | fold higher binding affinity than G1AA/280_02_G02_NS [fold] | Binder
9 | 1.8 to 4.8 | B5
10 | 1.8 to 4.8 | B6

Molecular target: T3, Cyno PD-L1-rCD4-His (cynomolgus)
T3 construct: The entry as printed begins with the signal peptide; also called cynomolgus PD-L1-rCD4-His
T3 sequence (chain, as listed by the source limits assumed): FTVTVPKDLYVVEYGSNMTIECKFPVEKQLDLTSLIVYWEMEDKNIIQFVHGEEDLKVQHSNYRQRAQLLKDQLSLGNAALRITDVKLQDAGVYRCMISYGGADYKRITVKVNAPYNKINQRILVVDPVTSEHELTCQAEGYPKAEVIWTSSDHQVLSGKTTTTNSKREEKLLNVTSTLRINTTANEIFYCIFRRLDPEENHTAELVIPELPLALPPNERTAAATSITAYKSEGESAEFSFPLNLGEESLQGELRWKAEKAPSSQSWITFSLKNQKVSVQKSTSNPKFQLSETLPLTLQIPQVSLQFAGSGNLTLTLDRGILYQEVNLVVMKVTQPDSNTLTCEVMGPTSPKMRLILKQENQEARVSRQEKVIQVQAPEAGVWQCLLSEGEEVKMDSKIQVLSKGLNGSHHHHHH
Test: SPR, IgG1 from culture supernatant

Row | Kd [nM] | Binder
11 | 3.64 | B7
12 | 0.5 | B8
13 | 0.25 | B5
14 | 0.59 | B6

Molecular target: T4, human PD-L1-rCD4-His (human)
T4 construct: Human PD-L1 fused to the monomeric C-terminal rat CD4 domains 3 and 4 tag and His tag; made in HEK293; The entry as printed begins with the signal peptide (MRIF...); also called hPD-L1-rCD4-His; hu-PD-L1-rCD4-His
T4 sequence (chain, as listed by the source limits assumed): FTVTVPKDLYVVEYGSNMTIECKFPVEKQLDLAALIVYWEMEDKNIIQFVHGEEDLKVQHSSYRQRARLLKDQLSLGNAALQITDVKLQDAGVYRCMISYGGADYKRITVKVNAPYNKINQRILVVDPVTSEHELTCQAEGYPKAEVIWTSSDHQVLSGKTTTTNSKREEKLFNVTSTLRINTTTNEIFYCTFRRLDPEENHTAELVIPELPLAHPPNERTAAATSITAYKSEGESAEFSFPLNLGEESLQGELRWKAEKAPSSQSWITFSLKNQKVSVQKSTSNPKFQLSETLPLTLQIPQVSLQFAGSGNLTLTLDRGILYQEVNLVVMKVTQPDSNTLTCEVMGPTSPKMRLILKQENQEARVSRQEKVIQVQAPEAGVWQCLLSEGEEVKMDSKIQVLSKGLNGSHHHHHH
Test: SPR, IgG1 from culture supernatant

Row | Kd [nM] | Binder
15 | 3.07 | B7
16 | 0.36 | B8
17 | 0.21 | B5
18 | 0.48 | B6

Molecular target: T3, Cyno PD-L1-rCD4-His
Test: SPR; G1/929_01_A02 on PD-L1-rCD4-His (Table 8) against G1AA/E12v2 on PD-L1-His (Table 9)

Row | fold lower affinity than G1AA/E12v2 [fold] | Binder
19 | > 10 | B7

Molecular target: T4, human PD-L1-rCD4-His
Test: as above

Row | fold lower affinity than G1AA/E12v2 [fold] | Binder
20 | > 10 | B7

Molecular target: T1, cynomolgus PD-L1-His (Acro Biosystems, …)
Test: SPR (Biacore T200), mAb on Protein A chip, antigen 81-0.037 nM
Experimental: as §1

Row | Kd [nM] | Binder
21 | 0.45 | B8
22 | 0.28 | B5
23 | 0.49 | B6
24 | 1.32 | B9

Molecular target: T2, biotinylated human PD-L1-Avi-His (Acro …)
Test: as above
Experimental: as §1

Row | Kd [nM] | Binder
25 | 0.39 | B8
26 | 0.23 | B5
27 | 0.6 | B6
28 | 1.1 | B9

Molecular target: T5, PD-L1 on PD-L1 cells (Promega, CS178103; PD1/PD-L1 Blockade Bioassay J1250/J1255) (UniProt Q9NZQ7 19-290)
T5 sequence (Q9NZQ7 19-290): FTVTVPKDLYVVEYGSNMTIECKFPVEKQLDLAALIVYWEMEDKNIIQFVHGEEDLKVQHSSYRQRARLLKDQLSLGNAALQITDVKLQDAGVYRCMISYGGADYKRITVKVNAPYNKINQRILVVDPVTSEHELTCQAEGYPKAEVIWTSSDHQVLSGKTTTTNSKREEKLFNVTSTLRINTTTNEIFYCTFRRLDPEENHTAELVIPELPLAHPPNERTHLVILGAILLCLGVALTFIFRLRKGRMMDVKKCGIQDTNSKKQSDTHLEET
Test: cell-based or functional assay

Row | half maximal effective concentration (EC50), dose-response co-culture reporter assay (luciferase) [nM] | Binder
29 | 4.2 | B10

Molecular target: mouse PD-L1 on LK35.2 cells (LK35.2 mPD-L1) (mouse, UniProt Q9EP73 19-290)
Sequence (Q9EP73 19-290): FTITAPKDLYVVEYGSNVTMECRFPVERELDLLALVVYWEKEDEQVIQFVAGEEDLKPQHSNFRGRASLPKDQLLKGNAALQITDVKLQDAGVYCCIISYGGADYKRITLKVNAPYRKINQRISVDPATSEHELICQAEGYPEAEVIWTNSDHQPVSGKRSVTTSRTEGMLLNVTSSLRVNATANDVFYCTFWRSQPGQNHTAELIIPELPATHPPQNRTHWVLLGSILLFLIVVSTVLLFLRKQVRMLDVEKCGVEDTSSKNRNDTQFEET
Test: cell-based or functional assay

Row | EC50 (nM), mPD-L1 DO11.10 T Cell Activation Assay (IL-2 release) [nM] | Emax (pg/ml), mPD-L1 DO11.10 T Cell Activation Assay (IL-2 release) [pg/mL] | Binder
30 | 2.71 | 1910 | B8
31 | 1.02 | 1970 | B5
32 | 4.37 | 2110 | B6

Molecular target: T6, human PD-L1 on HEK293 cells (HEK293.hPD-L1) (human, UniProt Q9NZQ7 19-290)
T6 construct: Flp-In T-REx 293 cells stably overexpressing human PD-L1; also called cell surface human PD-L1
T6 sequence (Q9NZQ7 19-290): as the sequence (Q9NZQ7 19-290) above
Test: flow cytometry on HEK293 cells expressing human PD-L1, GMFI against concentration
Experimental: Non-specific binding was also assessed by testing binding to HEK293 parental cells lacking human PD-L1 (Flp-In T-Rex 293 cell line, Life Technologies, R780-07).
HEK293 and HEK293.hPD-L1 suspensions were prepared in PBS containing 0.5% BSA (Sigma. A7906) and seeded at 1×10⁵ cell/well in 100 μl in round bottomed 96-well plates (VWR, 734-1797). […] The washed cells were resuspended in the diluted antibody mixture, incubated at 4° C. for 30 minutes, and then washed once in PBS. 100 μl/well of secondary antibody (Alexa Fluor 647-AffiniPure Goat Anti-Human IgG, F(ab′)2 Fragment Specific, Stratech Scientific, 109-605-006-JIR) diluted 1:1000 in PBS was then added, the cells/antibody mixture was incubated for 20 mins at 4° C., and the cells were then washed again with PBS and resuspended in 100 μl of PBS containing 7AAD (1:1000, Biotium, 40043) before being analysed using a Canto II flow cytometer (BD Bioscience). Dead cells were excluded and the fluorescence in the FITC channel (488 nm/530/30) was measured. The geometric mean fluorescence intensity (GMFI) values were plotted against the log concentration of antibody and the resulting curves were fitted using the log (agonist) versus response equation in GraphPad Prism.

Row | EC50 [nM] | Binder
33 | 0.27 | B8
34 | 0.26 | B5
35 | 0.29 | B6

Molecular target: T5, PD-L1 on PD-L1 cells (Promega, …)
Test: cell-based or functional assay
Remark: another data set of the same source

Row | IC50 (nM), PD1/PD-L1 Blockade Bioassay [nM] | Binder
36 | 0.33 | B8
37 | 0.35 | B5
38 | 0.36 | B6

Molecular target: T7, mouse PD-L1-His (Acro Biosystems, PD1-M5220) (mouse, UniProt Q9EP73 19-238)
T7 construct: Bought; also called recombinant mouse PD-L1
T7 sequence (Q9EP73 19-238 limits assumed): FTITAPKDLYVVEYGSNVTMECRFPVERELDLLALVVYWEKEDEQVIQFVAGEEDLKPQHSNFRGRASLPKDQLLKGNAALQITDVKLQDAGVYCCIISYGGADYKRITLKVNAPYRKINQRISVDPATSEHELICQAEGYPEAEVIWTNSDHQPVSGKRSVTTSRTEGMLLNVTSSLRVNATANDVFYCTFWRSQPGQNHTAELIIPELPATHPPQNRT
Test: SPR (Biacore T200), mAb on Protein A chip, antigen 81-0.037 nM; Rmax of the human profile used
Experimental: as §1

Row | Kd [nM] | Binder
39 | 225 | B8
40 | 38 | B5
41 | 223 | B6
42 | 137 | B9

Source: patent publication US20250270324A1 (INVOX PHARMA, published 2025)
